Experimental data: patent US20130196336A1

B1: recombinant human transglutaminase 2 with N-terminal hexahistidine-tag (enzyme)
chain: HHHHHHAEELVLERCDLELETNGRDHHTADLCREKLVVRRGQPFWLTLHFEGRNYEASVDSLTFSVVTGPAPSQEAGTKARFPLRDAVEEGDWTATVVDQQDCTLSLQLTTPANAPIGLYRLSLEASTGYQGSSFVLGHFILLFNAWCPADAVYLDSEEERQEYVLTQQGFIYQGSAKFIKNIPWNFGQFEDGILDICLILLDVNPKFLKNAGRDCSRRSSPVYVGRVVSGMVNCNDDQGVLLGRWDNNYGDGVSPMSWIGSVDILRRWKNHGCQRVKYGQCWVFAAVACTVLRCLGIPTRVVTNYNSAHDQNSNLLIEYFRNEFGEIQGDKSEMIWNFHCWVESWMTRPDLQPGYEGWQALDPTPQEKSEGTYCCGPVPVRAIKEGDLSTKYDAPFVFAEVNADVVDWIQQDDGSVHKSINRSLIVGLKISTKSVGRDEREDITHTYKYPEGSSEEREAFTRANHLNKLAEKEETGMAMRIRVGQSMNMGSDFDVFAHITNNTAEEYVCRLLLCARTVSYNGILGPECGTKYLLNLNLEPFSEKSVPLCILYEKYRDCLTESNLIKVRALLVEPVINSYLLAERDLYLENPEIKIRILGEPKQKRKLVAEVSLQNPLPVALEGCTFTVEGAGLTEEQKTVEIPDPVEAGEEVKVRMDLLPLHMGLHKLVVNFESDKLKAVKGFRNVIIGPA
B2: recombinant human transglutaminase 6 with C-terminal hexahistidine-tag (enzyme, UniProt O95932 1-706, looked up, part only)
chain: MAGIRVTKVDWQRSRNGAAHHTQEYPCPELVVRRGQSFSLTLELSRALDCEEILIFTMETGPRASEALHTKAVFQTSELERGEGWTAAREAQMEKTLTVSLASPPSAVIGRYLLSIRLSSHRKHSNRRLGEFVLLFNPWCAEDDVFLASEEERQEYVLSDSGIIFRGVEKHIRAQGWNYGQFEEDILNICLSILDRSPGHQNNPATDVSCRHNPIYVTRVISAMVNSNNDRGVVQGQWQGKYGGGTSPLHWRGSVAILQKWLKGRYKPVKYGQCWVFAGVLCTVLRCLGIATRVVSNFNSAHDTDQNLSVDKYVDSFGRTLEDLTEDSMWNFHVWNESWFARQDLGPSYNGWQVLDATPQEESEGVFRCGPASVTAIREGDVHLAHDGPFVFAEVNADYITWLWHEDESRERVYSNTKKIGRCISTKAVGSDSRVDITDLYKYPEGSRKERQVYSKAVNRLFGVEASGRRIWIRRAGGRCLWRDDLLEPATKPSIAGKFKVLEPPMLGHDLRLALCLANLTSRAQRVRVNLSGATILYTRKPVAEILHESHAVRLGPQEEKRIPITISYSKYKEDLTEDKKILLAAMCLVTKGEKLLVEKDITLEDFITIKVLGPAMVGVAVTVEVTVVNPLIERVKDCALMVEGSGLLQEQLSIDVPTLEPQERASVQFDITPSKSGPRQLQVDLVSPHFPDIKGFVIVHVATAK
modifications: full-length C-terminal His6 tag

Legend:
[1] = target: serum IgG of coeliac disease patient CD1; assay: inhibition ELISA: serum preincubated with 50 µg/ml soluble TG2, then TG2-coated plate, IgG detection
[2] = target: serum IgA of the gluten ataxia with enteropathy patients that displayed reactivity towards both TG2 and TG6 (Example 5); assay: anti-TG2 IgA ELISA after preincubation of sera with 22.4 µg/ml soluble TG2
[3] = target: serum IgA of the coeliac disease patients that displayed reactivity towards both TG2 and TG6 (Example 5); assay: as above
[4] = target: serum IgA of gluten ataxia with enteropathy patient GAE 16; assay: inhibition ELISA: serum preincubated with soluble TG2, then TG2-coated plate, IgA detection
[5] = target: serum IgA of the gluten ataxia with enteropathy patients that displayed reactivity towards both TG2 and TG6 (Example 5); assay: anti-TG6 IgA ELISA after preincubation of sera with 22.4 µg/ml soluble TG2
[6] = target: serum IgA of the coeliac disease patients that displayed reactivity towards both TG2 and TG6 (Example 5); assay: as above
[7] = target: serum IgA of coeliac disease patient CD1; assay: inhibition ELISA: serum preincubated with 50 µg/ml soluble TG2, then TG2-coated plate, IgA detection
[8] = target: serum IgA of the gluten ataxia with enteropathy patients that displayed reactivity towards both TG2 and TG6 (Example 5); assay: anti-TG2 IgA ELISA after preincubation of sera with 22.4 µg/ml soluble TG6
[9] = target: serum IgA of the coeliac disease patients that displayed reactivity towards both TG2 and TG6 (Example 5); assay: as above
[10] = target: serum IgA of gluten ataxia with enteropathy patient GAE 16; assay: inhibition ELISA: serum preincubated with soluble TG6, then TG2-coated plate, IgA detection
[11] = target: serum IgA of the gluten ataxia with enteropathy patients that displayed reactivity towards both TG2 and TG6 (Example 5); assay: anti-TG6 IgA ELISA after preincubation of sera with 22.4 µg/ml soluble TG6
[12] = target: serum IgA of the coeliac disease patients that displayed reactivity towards both TG2 and TG6 (Example 5); assay: as above

| Binder | percent blocked [1] | mean inhibition (%) [2] | mean inhibition (%) [3] | percent blocked [4] | mean inhibition (%) [5] | mean inhibition (%) [6] | percent blocked [7] | mean inhibition (%) [8] | mean inhibition (%) [9] | percent blocked [10] | mean inhibition (%) [11] | mean inhibition (%) [12] |
| --- | --- | --- | --- | --- | --- | --- | --- | --- | --- | --- | --- | --- |
| B1 | 93% | 55% | 37% | 6% | 14% | 18% | 52% |  |  |  |  |  |
| B2 |  |  |  |  |  |  |  | 15% | 1% | 37% | 61% | 71% |
